{"source": "patent US20170129954A1", "about": "(PROTHENA BIOSCIENCES, published 2017)", "binders": {"B1": {"name": "mouse anti-human MCAM monoclonal antibody clone 1749.1.3 (antibody, V domains shown)", "VH": "DVKLVESGGDLVKPGGSLKLSCAASGFTFSSYIMSWVRQTPEKRLEWVATISSGGSSTYYPDSVKGRFTISRDNAKNTLYLQMSSLKSEDTAMYYCTRDDDYDVKVFAYWGQGTLVTVSA", "VL": "DIVMSQSPSSLAVSAGEKVTMNCKSSRSLLNSRIRKNYLAWYQQKPGQSPKLLIYWASTRESGVPDRFTGSGSGTDFTLTISSVQAEDLAVYYCKQSYNLLTFGAGTKLELK", "notes": "Mouse hybridoma monoclonal antibody; also called m1749"}}, "key": {"[1]": {"biological_target": "T1, MCAM Y318A mutant, purified protein from a stable cell line (human, UniProt P43121 24-559, limits assumed)", "T1 chain": "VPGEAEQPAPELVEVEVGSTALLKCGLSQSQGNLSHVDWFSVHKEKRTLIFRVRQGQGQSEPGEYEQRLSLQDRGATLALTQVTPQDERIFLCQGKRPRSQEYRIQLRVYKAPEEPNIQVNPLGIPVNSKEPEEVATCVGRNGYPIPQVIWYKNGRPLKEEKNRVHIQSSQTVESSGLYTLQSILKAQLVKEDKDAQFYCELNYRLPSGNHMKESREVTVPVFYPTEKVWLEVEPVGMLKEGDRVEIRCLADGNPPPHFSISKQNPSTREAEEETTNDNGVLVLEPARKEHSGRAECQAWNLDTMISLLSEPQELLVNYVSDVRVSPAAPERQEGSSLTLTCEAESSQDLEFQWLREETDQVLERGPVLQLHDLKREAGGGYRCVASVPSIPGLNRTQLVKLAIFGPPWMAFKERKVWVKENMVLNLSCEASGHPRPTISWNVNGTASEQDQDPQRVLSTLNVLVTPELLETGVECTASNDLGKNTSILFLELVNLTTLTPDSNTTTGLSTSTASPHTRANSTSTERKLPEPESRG", "assay": "ForteBio BLI with purified protein", "method": "To further confirm the data, stable cell lines expressing I141A, P145V, D216A and Y318A respectively were generated. Fortebio assays were performed with the purified proteins as described above. The control ABX-MA1 antibody bound to wild type MCAM and the MCAM mutants."}, "[2]": {"biological_target": "T2, human MCAM (antigen of the BLI kinetics in Example 7) (human, UniProt P43121 24-559, limits assumed)", "T2 chain": "T1 chain with A295Y", "assay": "BLI, ForteBio Octet QK, apparent KD", "text": "Apparent ka, apparent kd and apparent KD are binding kinetic parameters obtained using ForteBio assay formats."}, "[3]": {"biological_target": "T3, combination of human MCAM domains 1 and 2 (amino acids 19-242) hFc (human, UniProt P43121 19-242)", "T3 construct": "One of the various MCAMhFc domains captured on anti-human IgG Fc biosensors; also called combination of domains 1 and 2; MCAMhFc domain; not shown: human IgG Fc (hFc)", "T3 sequence": "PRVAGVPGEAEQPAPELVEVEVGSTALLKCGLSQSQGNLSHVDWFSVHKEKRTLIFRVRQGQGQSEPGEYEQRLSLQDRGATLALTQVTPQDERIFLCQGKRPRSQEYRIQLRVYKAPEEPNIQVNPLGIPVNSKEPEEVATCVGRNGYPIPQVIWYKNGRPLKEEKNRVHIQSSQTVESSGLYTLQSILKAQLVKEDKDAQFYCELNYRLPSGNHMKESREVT", "assay": "ForteBio BLI, MCAMhFc domains on anti-human IgG Fc biosensors", "text": "(§1) The following protocol was used: ForteBio anti-human IgG Fc biosensors were used to immobilize various MCAMhFc domains including full length MCAMhFc protein on to biosensor surface. […] After loading these samples into a black 96 well plate, the Octet Red was programmed as follows: 60 seconds for baseline #1; 180 seconds for loading various domains; 60 seconds for baseline #2; 180 seconds for association of antibody to domain; and 240 seconds for dissociation of antibody from domain.\n(§2) 1. MCAMhFc final concentration @ 5 ug/ml [0329] […] 3. ForteBio anti-human IgG Fc Capture (AHC) biosensors for kinetics experiments, cat #18-5060 [0331] 4. Block 96 well plate from Greiner Bio-one, cat #655209 [0332] 5. ForteBio Octet Red machine [0333] 6. Fresh tissue culture medium, DMEM with 20% FCS, was used as buffer for dilution The results from these analyses are as follows."}, "[4]": {"biological_target": "T4, human MCAM domain 2 (amino acids 139-242) hFc (human, UniProt P43121 139-242)", "T4 construct": "One of the various MCAMhFc domains captured on anti-human IgG Fc biosensors; also called MCAMhFc domain; not shown: human IgG Fc (hFc)", "T4 sequence": "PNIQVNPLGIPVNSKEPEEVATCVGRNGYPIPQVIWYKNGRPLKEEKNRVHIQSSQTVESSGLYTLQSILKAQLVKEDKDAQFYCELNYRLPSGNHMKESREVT", "assay": "ForteBio BLI, MCAMhFc domains on anti-human IgG Fc biosensors", "text": "as §1, §2"}, "[5]": {"biological_target": "T5, human MCAM Y318A single mutant displayed on mammalian cells (human, UniProt P43121 24-646)", "T5 construct": "also called Y318A mutant", "T5 chain": "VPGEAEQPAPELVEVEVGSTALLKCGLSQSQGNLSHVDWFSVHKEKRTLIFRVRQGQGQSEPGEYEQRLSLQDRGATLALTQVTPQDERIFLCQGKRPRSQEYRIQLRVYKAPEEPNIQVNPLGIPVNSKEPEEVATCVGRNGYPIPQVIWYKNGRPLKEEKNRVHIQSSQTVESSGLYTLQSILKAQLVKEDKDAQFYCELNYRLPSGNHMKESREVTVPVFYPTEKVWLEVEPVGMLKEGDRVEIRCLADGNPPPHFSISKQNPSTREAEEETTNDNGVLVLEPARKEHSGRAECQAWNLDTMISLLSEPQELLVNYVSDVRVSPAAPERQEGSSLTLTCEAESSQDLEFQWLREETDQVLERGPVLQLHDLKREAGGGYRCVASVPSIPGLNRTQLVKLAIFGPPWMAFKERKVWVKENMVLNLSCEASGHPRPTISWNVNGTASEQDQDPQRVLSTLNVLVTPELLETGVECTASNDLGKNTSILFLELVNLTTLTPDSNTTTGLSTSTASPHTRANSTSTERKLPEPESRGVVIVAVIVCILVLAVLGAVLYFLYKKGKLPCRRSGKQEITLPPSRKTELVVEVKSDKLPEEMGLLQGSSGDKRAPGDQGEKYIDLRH", "assay": "FACS on mammalian cells displaying the mutant", "text": "Twenty point mutants based on the structure information and shotgun mutagenesis information were designed and generated."}}, "note": "Substitutions are numbered along the chain they refer to."}
{"binder": "B1", "values": [{"measurement": "binding result", "setting": "[1]", "value": "no binding"}, {"measurement": "Kd", "setting": "[2]", "value": 0.286, "unit": "nM"}, {"measurement": "binding result", "setting": "[3]", "value": "no binding (tested: 5 ug/ml)"}, {"measurement": "binding result", "setting": "[4]", "value": "no binding (tested: 5 ug/ml)"}, {"measurement": "binding result", "setting": "[5]", "value": "no binding"}]}
